Results taken from patent US20250276077A1, “EPHA2 ANTIBODIES” (Immunome, Inc., priority 2022, published 2025).

Assays:
[1] = target: Human EphA2 (human) (UniProt P29317); assay: IHC/IF on frozen human tumor tissue: RCC-papillary
[2] = target: Human EphA2 (human) (UniProt P29317); assay: IHC/IF on frozen human tumor tissue: OVA
[3] = target: Human EphA2 (human) (UniProt P29317); assay: IHC/IF on frozen human tumor tissue: UCEC-clear cell
[4] = target: Human EphA2 (human) (UniProt P29317); assay: IHC/IF on frozen human tumor tissue: NSCLC-SQ
[5] = target: Human EphA2 (human) (UniProt P29317); assay: IHC/IF on frozen human tumor tissue: STS
[6] = target: Human EphA2 (human) (UniProt P29317); assay: IHC/IF on frozen human tumor tissue: ESO
[7] = target: Human EphA2 (human) (UniProt P29317); assay: IHC/IF on frozen human tumor tissue: RCC-clear cell
[8] = target: Human EphA2 (human) (UniProt P29317); assay: IHC/IF on frozen human tumor tissue: PANC
[9] = target: Human EphA2 (human) (UniProt P29317); assay: IHC/IF on frozen human tumor tissue: ER+ BRC
[10] = target: Human EphA2 (human) (UniProt P29317); assay: IHC/IF on frozen human tumor tissue: UCEC-papillary
[11] = target: Human EphA2 (human) (UniProt P29317); assay: IHC/IF on frozen human tumor tissue: GAC
[12] = target: Human EphA2 (human) (UniProt P29317); assay: IHC/IF on frozen human tumor tissue: URO
[13] = target: Human EphA2 (human) (UniProt P29317); assay: IHC/IF on frozen human tumor tissue: HNC
[14] = target: Human EphA2 (human) (UniProt P29317); assay: IHC/IF on frozen human tumor tissue: CRC
[15] = target: Human EphA2 (human) (UniProt P29317); assay: IHC/IF on frozen human tumor tissue: UCEC-endometrioid
[16] = target: Human EphA2 (human) (UniProt P29317); assay: IHC/IF on frozen human tumor tissue: ANC
[17] = target: Human EphA2 (human) (UniProt P29317); assay: IHC/IF on frozen human tumor tissue: Her2+ BRC
[18] = target: Human EphA2 (human) (UniProt P29317); assay: IHC/IF on frozen human tumor tissue: MELA
[19] = target: Human EphA2 (human) (UniProt P29317); assay: IHC/IF on frozen human tumor tissue: NSCLC-Adeno
[20] = target: Human EphA2 (human) (UniProt P29317); assay: IHC/IF on frozen human tumor tissue: PROC
[21] = target: Human EphA2 (human) (UniProt P29317); assay: IHC/IF on frozen human tumor tissue: TNBC
[22] = target: Human EphA2 (ephrin receptor A2), native, in human tumor tissue (human) (UniProt P29317); assay: tissue staining of human cancer samples, 3 ug/ml
[23] = target: Human EphA2 (ephrin receptor A2), native, in human tumor tissue (human) (UniProt P29317); assay: tissue staining of human cancer samples, 30 ug/ml (the box on the sheet prints AB-010017 twice)
[24] = target: Human EphA2 (ephrin receptor A2), native, in human tumor tissue (human) (UniProt P29317); assay: tissue staining of human cancer samples, 30 ug/ml

Question: What does the source list for 6997S (around Arg907) (antibody)?
Answer: IHC score [1]: 1; IHC score [2]: 1; IHC score [3]: 2; IHC score [4]: 1; IHC score [5]: 1; IHC score [6]: 2; IHC score [7]: 1; IHC score [8]: 1; IHC score [9]: 1; IHC score [10]: 2; IHC score [11]: 1; IHC score [12]: 1; IHC score [13]: 1; IHC score [14]: 1; IHC score [15]: 1; IHC score [16]: 2; IHC score [17]: 1; IHC score [18]: 2; IHC score [19]: 1; IHC score [20]: 1; IHC score [21]: 1

Question: “AB-010016 (based on Medi-547; mouse IgG2a format) (antibody)” was tested. Which Reactive (% of samples), Bladder Urothelial Carcinoma [22] did it give?
Answer: 33%

Question: And the Reactive (% of samples), Breast Cancer [22]?
Answer: 0%

Question: What about the Reactive (% of samples), Cervical Squamous Cell Carcinoma [22] of the same substance?
Answer: 0%

Question: And the Reactive (% of samples), Colorectal Adenocarcinoma [22]?
Answer: 10%

Question: What about the Reactive (% of samples), Head & Neck Squamous Cell Carcinoma [22] of the same substance?
Answer: 0%

Question: And the Reactive (% of samples), Liver Hepatocellular Cell Carcinoma [22]?
Answer: 7%

Question: And the Reactive (% of samples), Melanoma [22]?
Answer: 0%

Question: What about the Reactive (% of samples), Non-Small Cell Lung Cancer [22] of the same substance?
Answer: 5%

Question: And the Reactive (% of samples), Ovarian Cancer [22]?
Answer: 0%

Question: What about the Reactive (% of samples), Renal Cancer [22] of the same substance?
Answer: 0%

Question: What about the Reactive (% of samples), Soft Tissue Sarcoma [22] of the same substance?
Answer: 0%

Question: What about the Reactive (% of samples), Stomach Adenocarcinoma [22] of the same substance?
Answer: 0%

Question: And the Reactive (% of samples), Testicular Cancer [22]?
Answer: 0%

Question: And the Reactive (% of samples), Thyroid Cancer [22]?
Answer: 0%

Question: What about the Reactive (% of samples), Uterine Cancer [22] of the same substance?
Answer: 0%

Question: What about the Reactive (% of samples), Bladder Cancer (Urothelial) [23] of the same substance?
Answer: 50%

Question: And the Reactive (% of samples), Breast Cancer [23]?
Answer: 47%

Question: And the Reactive (% of samples), Cervical Cancer (Squamous) [23]?
Answer: 40%

Question: And the Reactive (% of samples), Colorectal Cancer (Adenocarcinoma) [23]?
Answer: 40%

Question: And the Reactive (% of samples), Esophageal Cancer (Squamous) [23]?
Answer: 27%

Question: And the Reactive (% of samples), Liver Cancer (HCC) [23]?
Answer: 80%

Question: And the Reactive (% of samples), Melanoma [23]?
Answer: 29%

Question: What about the Reactive (% of samples), Non-Small Cell Lung Cancer [23] of the same substance?
Answer: 26%

Question: And the Reactive (% of samples), Ovarian Cancer [23]?
Answer: 53%

Question: And the Reactive (% of samples), Renal Cancer [23]?
Answer: 0%

Question: And the Reactive (% of samples), Soft Tissue Sarcoma [23]?
Answer: 9%

Question: And the Reactive (% of samples), Stomach Cancer (Adenocarcinoma) [23]?
Answer: 50%

Question: What about the Reactive (% of samples), Testicular Cancer [23] of the same substance?
Answer: 28%

Question: What about the Reactive (% of samples), Thyroid Cancer [23] of the same substance?
Answer: 44%

Question: What about the Reactive (% of samples), Uterine Cancer [23] of the same substance?
Answer: 21%

Question: With “AB-010017 (based on MM-310; mouse IgG2a format) (antibody)” as the substance, how does the Reactive (% of samples), Bladder Urothelial Carcinoma [22] read?
Answer: 50%

Question: What about the Reactive (% of samples), Breast Cancer [22] of the same substance?
Answer: 0%

Question: What about the Reactive (% of samples), Cervical Squamous Cell Carcinoma [22] of the same substance?
Answer: 27%

Question: What about the Reactive (% of samples), Head & Neck Squamous Cell Carcinoma [22] of the same substance?
Answer: 38%

Question: What about the Reactive (% of samples), Liver Hepatocellular Cell Carcinoma [22] of the same substance?
Answer: 0%

Question: And the Reactive (% of samples), Non-Small Cell Lung Cancer [22]?
Answer: 11%

Question: What about the Reactive (% of samples), Ovarian Cancer [22] of the same substance?
Answer: 6%

Question: What about the Reactive (% of samples), Renal Cancer [22] of the same substance?
Answer: 0%

Question: And the Reactive (% of samples), Soft Tissue Sarcoma [22]?
Answer: 3%

Question: What about the Reactive (% of samples), Stomach Adenocarcinoma [22] of the same substance?
Answer: 25%

Question: What about the Reactive (% of samples), Testicular Cancer [22] of the same substance?
Answer: 0%

Question: What about the Reactive (% of samples), Thyroid Cancer [22] of the same substance?
Answer: 8%

Question: And the Reactive (% of samples), Bladder Cancer (Urothelial) [24]?
Answer: 38%

Question: What about the Reactive (% of samples), Breast Cancer [24] of the same substance?
Answer: 8%

Question: What about the Reactive (% of samples), Cervical Cancer (Squamous) [24] of the same substance?
Answer: 36%

Question: What about the Reactive (% of samples), Colorectal Cancer (Adenocarcinoma) [24] of the same substance?
Answer: 10%

Question: What about the Reactive (% of samples), Esophageal Cancer (Squamous) [24] of the same substance?
Answer: 13%

Question: What about the Reactive (% of samples), Liver Cancer (HCC) [24] of the same substance?
Answer: 43%

Question: What about the Reactive (% of samples), Melanoma [24] of the same substance?
Answer: 7%

Question: And the Reactive (% of samples), Non-Small Cell Lung Cancer [24]?
Answer: 5%

Question: And the Reactive (% of samples), Ovarian Cancer [24]?
Answer: 47%

Question: And the Reactive (% of samples), Renal Cancer [24]?
Answer: 12%

Question: What about the Reactive (% of samples), Soft Tissue Sarcoma [24] of the same substance?
Answer: 3%

Question: What about the Reactive (% of samples), Stomach Cancer (Adenocarcinoma) [24] of the same substance?
Answer: 25%

Question: What about the Reactive (% of samples), Testicular Cancer [24] of the same substance?
Answer: 0%

Question: And the Reactive (% of samples), Thyroid Cancer [24]?
Answer: 0%

Question: And the Reactive (% of samples), Uterine Cancer [24]?
Answer: 7%

Question: Which results are given for Ab73254 (extracellular) (antibody)?
Answer: IHC score [1]: 1; IHC score [2]: 1; IHC score [3]: 2; IHC score [4]: 2; IHC score [5]: 1; IHC score [6]: 1; IHC score [7]: 1; IHC score [8]: 1; IHC score [9]: 1; IHC score [10]: 1; IHC score [11]: 1; IHC score [12]: 1; IHC score [13]: 1; IHC score [14]: 1; IHC score [15]: 1; IHC score [16]: 1; IHC score [17]: 1; IHC score [18]: 2; IHC score [19]: 2; IHC score [20]: 1; IHC score [21]: 1
